The values that follow come from the Immune Epitope Database (IEDB).

Test [1] has as its target HLA-A*01:01. Description: IEDB peptide-MHC binding, purified MHC/direct/fluorescence; filed as Kd, often an IC50 or EC50 that approximates it; ≥ and ≤ were set here for values at or beyond the usual limits of such assays.
The target in test [2] is HLA-A*02:01. The description is as above.
For test [3], the target named is HLA-A*11:01. The description is as above.
Test [4] concerns the target HLA-A*26:02. Described as above. As to conditions: source organism: Ravn virus - Ravn, Kenya, 1987.
The target in test [5] is HLA-A*26:03. The description is as above. The conditions noted are these: source organism: Ravn virus - Ravn, Kenya, 1987.
Test [6] addresses HLA-A*31:01. Described as above.
For test [7], the target named is HLA-A*68:02. The description is as above. The conditions noted are these: source organism: Marburg virus - Musoke, Kenya, 1980.
Test [8] addresses HLA-A*69:01. The description is as above.
The target of test [9] is HLA-B*07:02. The test is described as above.
The target in test [10] is HLA-B*08:02. Described as above.
Test [11] has as its target HLA-B*08:03. Described as above. The conditions noted are these: source organism: Ravn virus - Ravn, Kenya, 1987.
In test [12] the target is HLA-B*15:17. The description is as above. As to conditions: source organism: Marburg virus - Musoke, Kenya, 1980.
The target of test [13] is HLA-B*18:01. Described as above.
Test [14] addresses HLA-B*27:05. The description is as above.
For test [15], the target named is HLA-B*39:01. Described as above. As to conditions: source organism: Ravn virus - Ravn, Kenya, 1987.
For test [16], the target named is HLA-B*40:01. Described as above.
Test [17] concerns the target HLA-B*44:02. Described as above. As to conditions: source organism: Marburg virus - Musoke, Kenya, 1980.
For test [18], the target named is HLA-B*48:01. Described as above.
Test [19] addresses HLA-B*57:01. Described as above.
The target of test [20] is HLA-B*58:01. The description is as above.
Test [21] has as its target HLA-B*15:02. Described as above. The conditions noted are these: source organism: dengue virus type 4.
For test [22], the target named is HLA-B*46:01. The description is as above.
Test [23] addresses HLA-A*02:03. The test is described as above. As to conditions: source organism: Giardia lamblia ATCC 50803.
The target in test [24] is HLA-A*02:11. The description is as above. As to conditions: source organism: Giardia lamblia ATCC 50803.
The target of test [25] is HLA-A*02:12. The test is described as above. The conditions noted are these: source organism: Giardia lamblia ATCC 50803.
Test [26] deals with HLA-A*03:01. The description is as above. As to conditions: source organism: Giardia lamblia ATCC 50803.
For test [27], the target named is HLA-A*26:01. The test is described as above. As to conditions: source organism: Giardia lamblia ATCC 50803.
Test [28] concerns the target HLA-B*08:01. The test is described as above. The conditions noted are these: source organism: Giardia lamblia ATCC 50803.
Test [29] addresses HLA-B*15:01. The test is described as above. As to conditions: source organism: Giardia lamblia ATCC 50803.
Test [30] has as its target HLA-B*38:01. The test is described as above. As to conditions: source organism: Giardia lamblia ATCC 50803.
Test [31] has as its target HLA-A*30:01. The experiment in a line: IEDB peptide-MHC binding, purified MHC/competitive/fluorescence; filed as Kd, often an IC50 or EC50 that approximates it; ≥ and ≤ were set here for values at or beyond the usual limits of such assays. The conditions noted are these: source organism: Giardia lamblia ATCC 50803.
The target in test [32] is HLA-B*15:09. Described as above. The conditions noted are these: source organism: Giardia lamblia ATCC 50803.
The target in test [33] is HLA-B*15:17. The description is as above. The conditions noted are these: source organism: Giardia lamblia ATCC 50803.
Test [34] deals with HLA-B*39:01. The description is as above. As to conditions: source organism: Giardia lamblia ATCC 50803.
The mark [35] stands for this setting: source organism: Marburg virus - Musoke, Kenya, 1980.
[36] abbreviates: source organism: Giardia lamblia ATCC 50803.

Regarding AEALLADGL, the Kd in test [1] (setting [35]), in test [2] (setting [35]), in test [3] (setting [35]), in test [4], in test [5] and in [6] (setting [35]) was ≥ 20 µM throughout. The dissociation constant (Kd) is ≥ 20 µM in [7]; ≥ 20 µM in [8] (setting [35]); ≥ 20 µM in test [9] (setting [35]); ≥ 20 µM in test [10] (source organism: Ravn virus - Ravn, Kenya, 1987); ≥ 20 µM in test [11]; ≥ 20 µM in [12]. Further, the dissociation constant Kd in test [13] (setting [35]) is 1.75 µM; in test [14] (setting [35]), ≥ 20 µM; in test [15] it was ≥ 20 µM; in test [16] (setting [35]) it was 0.0113 µM; in [17] it was ≥ 10 µM; in test [18] (setting [35]), ≥ 20 µM. In addition, the dissociation constant Kd in test [19] (setting [35]) and in test [20] (setting [35]) was ≥ 20 µM in each case.

As for AQEDDQYVF, the Kd in test [21] and in test [22] (source organism: dengue virus type 4) was ≥ 20 µM each time.

Turning to LPVFATIGL, the equilibrium dissociation constant (Kd) in test [1] (setting [36]) was ≥ 20 µM; in [2] (setting [36]), 7.53 µM; in [23], ≥ 20 µM; in test [24], 0.146 µM; in [25], 0.393 µM; in test [26], ≥ 20 µM. Further, the Kd in test [3] (setting [36]) is ≥ 20 µM; in test [27], ≥ 20 µM; in test [6] (setting [36]) it was ≥ 20 µM; in test [8] (setting [36]), 0.0117 µM; in test [9] (setting [36]), 0.0583 µM; in test [28], ≥ 20 µM. For the same sequence, the equilibrium dissociation constant (Kd) in test [10] (setting [36]) was ≥ 20 µM; in test [29], ≥ 20 µM; in test [13] (setting [36]) it was 3.1 µM; in test [14] (setting [36]) it was ≥ 20 µM; in test [30] it was ≥ 20 µM; in [16] (setting [36]), ≥ 20 µM. Moreover, the Kd in test [22] (setting [36]) was ≥ 20 µM; in test [18] (setting [36]), ≥ 20 µM; in test [19] (setting [36]), ≥ 20 µM; in [20] (setting [36]) it was ≥ 20 µM; in [31] it was ≥ 20 µM; in test [32], 1.98 µM. In addition, the Kd in test [33] is ≥ 20 µM; in test [34], 0.0902 µM.
